Results published in patent publication US9057734B2, “Optogenetic probes for measuring membrane potential” (President and Fellows of Harvard College, priority 2010, dated 2015).

Key:
[1] = Relative photostability of Arch 3 and eGFP in Arch 3-eGFP fusion; format: physicochemical
Method: To perform a direct comparison of photostability of Arch 3 and eGFP we studied the photobleaching of the Arch 3-eGFP fusion. This strategy guaranteed a 1:1 stoichiometry of the two fluorophores, simplifying the analysis. The experiments were performed on permeabilized cells, in the microscope, with video recording as the cells photobleached. We first recorded a movie of photobleaching of Arch 3 under 640 nm illumination; then on the same field of view we recorded photobleaching of eGFP under 488 nm illumination, with illumination intensity adjusted to yield approximately the same initial count rate as for Arch 3. Fluorescence background levels were obtained from nearby protein-free regions of each movie and were subtracted from the intensity of the protein-containing regions. The area under each photobleaching timetrace was calculated, yielding an estimate of the total number of detected photons from each fluorophore. The eGFP emission (λmax=509 nm) and the Arch emission (λmax=687 nm) were collected through different emission filters, so the raw counts were corrected for the transmission spectra of the filters and the wavelength-dependent quantum yield of the EMCCD camera. The result was that the relative number of photons emitted prior to photobleaching for eGFP:Arch 3 WT was 3.9:1, and for eGFP:Arch D95N this ratio was 10:1.

[2] = tested on: cultured rat hippocampal neurons; experiment: Optical recording of action potentials under whole cell current clamp; format: cell-based
From the text: We tested Arch 3 as a voltage indicator in cultured rat hippocampal neurons, using viral delivery. […] Individual spikes were accompanied by clearly identifiable increases of fluorescence (FIG. 7A). At a 2 kHz image acquisition rate, the signal-to-noise ratio in the fluorescence (spike amplitude:baseline noise) was 10.5.
Simultaneous fluorescence and whole-cell patch clamp recordings were acquired on a home-built, inverted epifluorescence microscope at room temperature. A diode laser operating at 100 mW, 640 nm (CrystaLaser, DL638-100-O) provided wide-field illumination at an intensity typically between 500-2000 W/cm^2. To minimize background signal from out-of-focus debris, illumination was often performed in through-the-objective total internal reflection fluorescence (TIRF) mode. Fluorescence emission was collected using a 60×, 1.45 NA oil immersion objective (Olympus), and separated from scattered excitation using a 660-760 nm bandpass emission filter (Chroma). For fast imaging of dynamic fluorescence responses and action potentials, images were acquired on an Andor iXon^+ 860 camera operating at up to 2,000 frames/s (using a small region of interest and pixel binning). Slower images with higher spatial resolution were acquired on an Andor iXon^+ 897 EMCCD. Custom software written in LabView (National Instruments) was used to synchronize illumination, collection of images, recording of membrane potential and cell current, and application of electrical stimuli to the cell.
E18 rat hippocampi were purchased from BrainBits and mechanically dissociated in the presence of 1 mg/mL papain (Worthington) before plating at 5,000-30,000 cells per dish on poly-L-lysine and Matrigel-coated (BD Biosciences) glass-bottom dishes. Cells were incubated in N+ medium (100 mL Neurobasal medium, 2 mL B27 supplement, 0.5 mM glutamine, 25 μM glutamate, penicillin-streptomycin) for 3 hours. […]
A spike identification algorithm was developed that could be applied either to electrically recorded V(t) or to optically determined V(t). […]

neurons = experiment: Light-induced photocurrent and perturbation of membrane potential in neurons; format: cell-based, rat; conditions: I=1800 W/cm2, TIR mode
From the text: Under illumination conditions typically used for imaging neural activity (I=1800 W/cm2 in total internal reflection (TIR) mode), the light-induced outward photocurrent was typically 10 pA in neurons expressing Arch 3 WT. Under current-clamp conditions this photocurrent shifted the resting potential of the neurons by up to −20 mV. For neurons near their activation threshold, this photocurrent could suppress firing (FIG. 9A), so we explored the non-pumping variant D95N as a voltage indicator in neurons.
Whole-cell current clamp recordings were obtained from mature neurons under the same conditions used for HEK cells recordings. Series resistance and pipette capacitance were corrected. Only neurons having resting potentials between −50 and −70 mV were used in the analysis.

B1: Arch 3 WT: Archaerhodopsin 3, light-driven proton pump from Halorubrum sodomense, used as fluorescent voltage indicator (protein)
chain: MDPIALQAGYDLLGDGRPETLWLGIGTLLMLIGTFYFLVRGWGVTDKDAREYYAVTILVPGIASAAYLSMFFGIGLTEVTVGGEMLDIYYARYADWLFTTPLLLLDLALLAKVDRVTIGTLVGVDALMIVTGLIGALSHTAIARYSWWLFSTICMIVVLYFLATSLRSAAKERGPEVASTFNTLTALVLVLWTAYPILWIIGTEGAGVVGLGIETLLFMVLDVTAKVGFGFILLRSRAILGDTEAPEPSAGADVSAAD
modifications: Halorubrum sodomense
notes: Archaerhodopsin 3, light-driven proton pump from Halorubrum sodomense, used as fluorescent voltage indicator
For B1, the “photons prior to photobleaching relative to eGFP” value [1] was “approximately 25%”, the “signal-to-noise ratio in the fluorescence (spike amplitude:baseline noise)” value ([2]; 2 kHz image acquisition rate) was 10.5 and the false-positive rate ([2]; n=269 spikes) was 0.7%. For the same molecule, the “change in resting potential or spike frequency during observation” value ([2]; up to 4 minutes of cumulative exposure) was “no detectable change in resting potential or spike frequency” and the light-induced outward photocurrent (neurons) was about 10 pA.
